Consider five molecules from patent US20260092115A1 (Chugai, published 2026).

T1: human FcγRIIa, type R, extracellular domain, His-tagged (human, UniProt P12318 34-217)
T1 construct: extracellular domain; also called hFcγR IIa R
T1 sequence (looked up): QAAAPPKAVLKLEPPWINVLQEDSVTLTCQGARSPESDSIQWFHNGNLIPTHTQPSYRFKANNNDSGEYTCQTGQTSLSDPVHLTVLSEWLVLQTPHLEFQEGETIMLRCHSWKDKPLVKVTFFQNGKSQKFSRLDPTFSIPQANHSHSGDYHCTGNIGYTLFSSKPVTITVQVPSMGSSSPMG

T2: human FcγRIIa, type H, extracellular domain, His-tagged (human, UniProt P12318 34-217)
T2 construct: extracellular domain; also called hFcγR IIa H
T2 sequence (looked up): T1 sequence (looked up) with R134H

T3: human FcγRIIb extracellular domain, His-tagged (human, UniProt P31994 43-217)
T3 construct: extracellular domain; also called hFcγR IIb
T3 sequence (looked up): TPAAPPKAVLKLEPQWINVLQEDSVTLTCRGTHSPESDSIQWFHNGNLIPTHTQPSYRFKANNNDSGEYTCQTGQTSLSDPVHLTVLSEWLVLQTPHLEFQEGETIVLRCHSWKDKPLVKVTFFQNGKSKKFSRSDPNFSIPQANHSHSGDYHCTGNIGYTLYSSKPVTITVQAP

B1: 04H1637-G1m/04L1610-lam1 (antibody, human IgG1, lambda)
heavy: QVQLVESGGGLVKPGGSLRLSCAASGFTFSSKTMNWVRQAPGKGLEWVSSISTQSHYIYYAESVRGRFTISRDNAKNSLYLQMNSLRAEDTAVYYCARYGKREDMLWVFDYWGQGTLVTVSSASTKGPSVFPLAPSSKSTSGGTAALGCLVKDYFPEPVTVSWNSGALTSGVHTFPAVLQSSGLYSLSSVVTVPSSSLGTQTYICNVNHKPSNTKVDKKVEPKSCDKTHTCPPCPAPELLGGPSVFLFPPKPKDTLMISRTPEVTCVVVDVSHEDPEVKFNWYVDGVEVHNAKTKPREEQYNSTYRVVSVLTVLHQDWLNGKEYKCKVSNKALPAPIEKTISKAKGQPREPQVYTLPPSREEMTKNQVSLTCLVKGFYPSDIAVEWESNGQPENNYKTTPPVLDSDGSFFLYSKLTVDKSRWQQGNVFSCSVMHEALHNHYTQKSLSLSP
light: QSALTQPPSASGSPGQSVTISCEGPSTGVGDYNWVHWYQQHPGKAPKLMIYFTSKKPSGVPDRFSGSKSGNTASLTVSGLQAEDEADYYCQTYAAPLGPMFGGGTKLTVLGQPKAAPSVTLFPPSSEELQANKATLVCLISDFYPGAVTVAWKADSSPVKAGVETTTPSKQSNNKYAASSYLSLTPEQWKSHRSYSCQVTHEGSTVEKTVAPTECS
B2: 04H1637-Kn462/04L1610-lam1//04H1637-H1441/04L1610-lam1 (antibody, human IgG1, lambda)
heavy 1: QVQLVESGGGLVKPGGSLRLSCAASGFTFSSKTMNWVRQAPGKGLEWVSSISTQSHYIYYAESVRGRFTISRDNAKNSLYLQMNSLRAEDTAVYYCARYGKREDMLWVFDYWGQGTLVTVSSASTKGPSVFPLAPSSKSTSGGTAALGCLVKDYFPEPVTVSWNSGALTSGVHTFPAVLQSSGLYSLSSVVTVPSSSLGTQTYICNVNHKPSNTKVDKKVEPKSCDKTHTCPPCPAPEFQWGPMVFLFPPKPKDVLMISRTPEVTCVVVDVSDEEPEVKFNWYVDGVEVHNAKTKPREEQYNATYRVVSVLPVLHQDWLNGKEYKCKVSNDALPAPIEKTISKAKGQPREPQVCTLPPSRDELTKNQVSLWCLVKGFYPSDIAVEWESNGQPENNYKTTPPVLDSDGSFFLYSKLTVDKSRWQQGNVFSCSVMHEALHNHYTQKSLSLSP
heavy 2: QVQLVESGGGLVKPGGSLRLSCAASGFTFSSKTMNWVRQAPGKGLEWVSSISTQSHYIYYAESVRGRFTISRDNAKNSLYLQMNSLRAEDTAVYYCARYGKREDMLWVFDYWGQGTLVTVSSASTKGPSVFPLAPSSKSTSGGTAALGCLVKDYFPEPVTVSWNSGALTSGVHTFPAVLQSSGLYSLSSVVTVPSSSLGTQTYICNVNHKPSNTKVDKKVEPKSCDKTHTCPPCPAPELLAGPSVFLFPPKPKDVLMISRTPEVTCVVVDVSHEEPEVKFNWYVDGVEVHNAKTKPREEQYNATYRVVSVLPVLHQDWLNGKEYKCKVSNDALPAPIEETISKAKGQPREPQVYTLPPSRCELTKNQVSLSCAVKGFYPSDIAVEWESNGQPENNYKTTPPVLDSDGSFFLVSKLTVDKSRWQQGNVFSCSVMHEALHNHYTQKSLSLSP
light: B1 light
notes: Heterodimerized IgG1 Fc variant; also called 04H1637-Kn462/04L1610-lam1//04H1637-Hl441/04L1610-lam1
B3: 04H1637-Kn125/04L1610-lam1//04H1637-H1076/04L1610-lam1 (antibody, human IgG1, lambda)
heavy 1: B2 heavy 1 with F239Y, V255T, P312T, D331K
heavy 2: B2 heavy 2 with A241G, V255T, A303S, P312T, A335M
light: B1 light
notes: Heterodimerized IgG1 with the Fc variant of WO 2013/002362; also called 04H1637-Kn125/04L1610-lam1//04H1637-Hl076/04L1610-lam1
B4: 04H1637-Kn462/04L1610-lam1//04H1637-H1445/04L1610-lam1 (antibody, human IgG1, lambda)
heavy 1: B2 heavy 1
heavy 2: B2 heavy 2 with A335K, I337D
light: B1 light
notes: Heterodimerized IgG1 Fc variant; also called 04H1637-Kn462/04L1610-lam1//04H1637-Hl445/04L1610-lam1
B5: 04H1637-Kn461/04L1610-lam1//04H1637-H1443/04L1610-lam1 (antibody, human IgG1, lambda)
heavy 1: B2 heavy 1 with I337E
heavy 2: B2 heavy 2 with I337E
light: B1 light
notes: Heterodimerized IgG1 Fc variant; also called 04H1637-Kn461/04L1610-lam1//04H1637-Hl443/04L1610-lam1

Changes are numbered by the printed parent chain.

T7 sequence (P08637 17-208 F176V): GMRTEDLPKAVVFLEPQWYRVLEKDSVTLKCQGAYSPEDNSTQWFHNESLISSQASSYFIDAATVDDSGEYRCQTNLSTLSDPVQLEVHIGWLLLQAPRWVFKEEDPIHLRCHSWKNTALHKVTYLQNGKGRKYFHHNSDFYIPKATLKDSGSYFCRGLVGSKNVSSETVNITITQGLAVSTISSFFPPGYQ
T5 sequence (P12314 16-292): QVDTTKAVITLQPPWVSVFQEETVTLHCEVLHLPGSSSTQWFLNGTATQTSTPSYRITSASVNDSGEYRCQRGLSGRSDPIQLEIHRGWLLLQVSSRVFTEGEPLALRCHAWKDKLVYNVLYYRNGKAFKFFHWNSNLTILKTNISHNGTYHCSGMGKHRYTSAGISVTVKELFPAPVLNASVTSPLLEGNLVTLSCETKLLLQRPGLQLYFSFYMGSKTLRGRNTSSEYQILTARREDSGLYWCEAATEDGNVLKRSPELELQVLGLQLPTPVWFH

One test deals with T4, human FcRn (human, UniProt P55899 24-290; P61769 21-119).
T4 construct: Prepared by the method of WO 2010/107110; also called hFcRn
T4 sequence (P55899 24-290 limits assumed, chain 1 of 2): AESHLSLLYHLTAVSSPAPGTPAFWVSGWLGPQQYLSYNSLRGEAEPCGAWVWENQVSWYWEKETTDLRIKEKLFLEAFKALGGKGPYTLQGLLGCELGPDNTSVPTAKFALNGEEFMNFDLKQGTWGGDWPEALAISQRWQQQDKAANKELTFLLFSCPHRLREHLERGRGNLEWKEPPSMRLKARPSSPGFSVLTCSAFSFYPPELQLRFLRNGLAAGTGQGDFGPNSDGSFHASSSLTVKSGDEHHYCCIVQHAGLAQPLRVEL
T4 sequence (P61769 21-119 limits assumed, chain 2 of 2): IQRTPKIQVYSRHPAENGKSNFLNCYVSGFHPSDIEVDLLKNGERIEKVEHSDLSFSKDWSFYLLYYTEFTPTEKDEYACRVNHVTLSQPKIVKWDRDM
In words: KD of 04H1637-G1m/04L1610-lam1 divided by KD of this antibody; SPR pH 6.0. On the procedure: The interaction between the generated antibodies and human FcRn was analyzed by the following method using Biacore T200. 50 mM Na-Phosphate, 150 mM NaCl, 0.05% Tween20 (pH 6.0) was used as the running buffer, and the assay was performed at 25° C. For the sensor chip, Series S SA (GE Healthcare) chips onto which CaptureSelect Human Fab-lambda Kinetics Biotin Conjugate (Thermo Fisher Scientific) was immobilized were used. The antibodies of interest were captured onto these chips and FcRn diluted in the running buffer was allowed to interact with them. Chips were regenerated with 10 mM Glycine-HCl (pH 1.5) and 25 mM NaOH, and assay was performed by repeatedly capturing antibodies. The dissociation constant for FcRn of each antibody was calculated using the steady state model, using Biacore T200 Evaluation Software 2.0.
“Relative value to KD between G1m and hFcRn” and “Relative value to KD between G1m and hFcγRs” are values obtained by dividing the KD value of 04H1637-G1m/04L1610-lam1 for hFcRn and for each FcγR by the KD value of each variant, respectively. “Relative binding amount” indicates the value obtained by dividing the binding amount of each variant to FcγRIIb by the binding amount of 04H1637-G1m/04L1610-lam1. […] It was shown that all of the generated heterodimerized antibodies had enhanced binding to FcγRIIa and FcγRIIIa as compared with 04H1637-G1m/04L1610-lam1 which has the constant region of native human IgG1. Furthermore, 04H1637-Kn462/04L1610-lam1//04H1637-H1441/04L1610-lam1, 04H1637-Kn462/04L1610-lam1//04H1637-H1445/04L1610-lam1, and 04H1637-Kn461/04L1610-lam1//04H1637-H1443/04L1610-lam1 were all shown to have enhanced binding to FcγRIIa compared to 04H1637-Kn125/04L1610-lam1//04H1637-H1076/04L1610-lam 1 which has the Fc region variant reported in WO 2013/002362.
Take B1: the “Relative value to KD between G1m and hFcRn” value came to 1 ratio.

A further test concerns the target T5, human FcγRIa extracellular domain, His-tagged (human, UniProt P12314 16-292).
T5 construct: also called hFcγR Ia
As to the kind of experiment: KD of 04H1637-G1m/04L1610-lam1 divided by KD of this antibody; SPR pH 7.4. The protocol: (§1) The interaction between the generated antibodies and human FcγRs was analyzed by the following method using Biacore T200. 50 mM Na-Phosphate, 150 mM NaCl, 0.05% Tween20 (pH 7.4) was used as the running buffer, and the assay was performed at 25° C. For the sensor chips, Series S SA (GE Healthcare) chips onto which CaptureSelect Human Fab-lambda Kinetics Biotin Conjugate (Thermo Fisher Scientific) was immobilized were used. The antibodies of interest were captured onto these chips and each FcγR diluted in the running buffer was allowed to interact with them. Chips were regenerated with 10 mM Glycine-HCl (pH 1.5) and 25 mM NaOH, and assay was performed by repeatedly capturing antibodies. The dissociation constants KD (mol/L) for FcγRs of each antibody were calculated using Biacore T200 Evaluation Software 2.0, using the 1:1 Langmuir binding model for FcγRIa and FcγRIIIa and the steady state affinity model for FcγRIIa. For FcγRIIb, the binding amount of FcγRIIb per unit amount of antibody was calculated by correcting the binding amount of FcγRIIb obtained from the sensorgram obtained by the measurement with the amount of antibody captured onto the chip surface.
(§2) “Relative value to KD between G1m and hFcRn” and “Relative value to KD between G1m and hFcγRs” are values obtained by dividing the KD value of 04H1637-G1m/04L1610-lam1 for hFcRn and for each FcγR by the KD value of each variant, respectively. “Relative binding amount” indicates the value obtained by dividing the binding amount of each variant to FcγRIIb by the binding amount of 04H1637-G1m/04L1610-lam1. […] It was shown that all of the generated heterodimerized antibodies had enhanced binding to FcγRIIa and FcγRIIIa as compared with 04H1637-G1m/04L1610-lam1 which has the constant region of native human IgG1.
Regarding B1, the “Relative value to KD between G1m and hFcγRs” value was found to be 1 ratio.
On to B2, for which the “Relative value to KD between G1m and hFcγRs” value worked out at 0.3 ratio.
Turning to B3, the “Relative value to KD between G1m and hFcγRs” value was found to be 1.2 ratio.
On to B4, for which the “Relative value to KD between G1m and hFcγRs” value was determined as 0.6 ratio.
The same measure, in the same setting: in the case of B5 it was 1.2 ratio.

The target in a further test is T1, human FcγRIIa, type R, extracellular …. The description is as above. The protocol: as §1, §2
In the case of B1, the “Relative value to KD between G1m and hFcγRs” value was 1 ratio.
Regarding B2, the “Relative value to KD between G1m and hFcγRs” value was 9.2 ratio.
Consider B3, for which the “Relative value to KD between G1m and hFcγRs” value stood at 1.6 ratio.
As to B4, the “Relative value to KD between G1m and hFcγRs” value was 18.7 ratio.
On to B5, for which the “Relative value to KD between G1m and hFcγRs” value is 10.7 ratio.

For a further test, the target named is T2, human FcγRIIa, type H, extracellular …. The test is described as above. The protocol: as §1, §2
On to B1, for which the “Relative value to KD between G1m and hFcγRs” value was 1 ratio.
On to B2, for which the “Relative value to KD between G1m and hFcγRs” value was 20.9 ratio.
As to B3, the “Relative value to KD between G1m and hFcγRs” value was determined as 3.6 ratio.
With B4, the “Relative value to KD between G1m and hFcγRs” value turned out to be 37.5 ratio.
Turning to B5, the “Relative value to KD between G1m and hFcγRs” value worked out at 11.1 ratio.

The target in another test is T6, human FcγRIIIa, allotype F158, extracellular domain, His-tagged (human, UniProt P08637 17-208).
T6 construct: extracellular domain; also called hFcγR IIIa F
T6 sequence (P08637 17-208): as the sequence (P08637 17-208 F176V) above, with V160F counted along it
The test is described as above. On the procedure: as §1, §2
On to B1, for which the “Relative value to KD between G1m and hFcγRs” value was 1 ratio.
On to B2, for which the “Relative value to KD between G1m and hFcγRs” value was 79.5 ratio.
For B3, the “Relative value to KD between G1m and hFcγRs” value was 406 ratio.
For the molecule B4, the “Relative value to KD between G1m and hFcγRs” value came to 382 ratio.
On the same count and under the same terms, in the case of B5 it was 616 ratio.

Another test concerns the target T7, human FcγRIIIa, allotype V158, extracellular domain, His-tagged (human, UniProt P08637 17-208).
T7 construct: extracellular domain; also called hFcγR IIIa V
Described as above. The protocol:
as §1, §2
For B1, the “Relative value to KD between G1m and hFcγRs” value was 1 ratio.
Turning to B2, the “Relative value to KD between G1m and hFcγRs” value amounted to 45.8 ratio.
Turning to B3, the “Relative value to KD between G1m and hFcγRs” value amounted to 126 ratio.
For the molecule B4, the “Relative value to KD between G1m and hFcγRs” value came to 131 ratio.
As to B5, the “Relative value to KD between G1m and hFcγRs” value is 226 ratio.

Another test addresses T3, human FcγRIIb extracellular domain, …. As to the kind of experiment: SPR Biacore T200, 25C, pH 7.4; FcγRIIb at 1000 nM, corrected by captured antibody. The protocol: as §1
In general terms: In SPR one partner is held on a chip, and binding of the other changes the refractive index at the surface.
B1: the Binding amount is 0.008 RU per RU of captured antibody.
Take B2: the Binding amount was 0.013 RU per RU of captured antibody.
Regarding B3, the Binding amount is 0.007 RU per RU of captured antibody.
Take B4: the Binding amount was 0.03 RU per RU of captured antibody.
With B5, the Binding amount was 0.025 RU per RU of captured antibody.

Another test shares this target. As to the kind of experiment: binding amount of this antibody divided by that of 04H1637-G1m/04L1610-lam1; SPR pH 7.4. On the procedure: as §1, §2
B1 had a Relative binding amount of 1 ratio.
The molecule B2 registered a Relative binding amount of 1.6 ratio.
Molecule B3 returned a Relative binding amount of 0.9 ratio.
The same measure, in the same setting: in the case of B4 it was 3.7 ratio; in that of B5, 3.1 ratio.
